Paper PMC2919706

Tests used:
Experiment in all cases: EMSA
Rad52 (K253R) = Rad52 (K253R) (Saccharomyces cerevisiae, UniProt P06778 1-471, K220R)
Rad52 (K43,44R) = Rad52 (K43,44R) (Saccharomyces cerevisiae, UniProt P06778 1-471, K10R;K11R)
Rad52 (K43,44,253R) = Rad52 (K43,44,253R) (Saccharomyces cerevisiae, UniProt P06778 1-471, K10R;K11R;K220R)
Rad52 = Rad52 (Saccharomyces cerevisiae, UniProt P06778)

Measured: binding result

AGCTACCATGCCTGCACGAATTAAGCAATTCGTAATCATGGTCATAGCT (ssDNA) [49-mer ssDNA (Oligo-3)]
binds: Rad52 (K253R) | Rad52 (K43,44R) | Rad52 (K43,44,253R) | Rad52
